The results in this text go back to patent publication US20240417469A1 (CONCEPT TO MEDICINE BIOTECH, published 2024).

Experiment [1] deals with T1, human CD3 on cells (human PBMC; Jurkat TCR/CD3 NFAT reporter cells) (human, UniProt P07766 23-207; P04234 22-171; P09693 23-182). Description: cell-based or functional assay.
Experiment [2] concerns the target T2, recombinant CD3D&E protein (human CD3-his tag) (human, UniProt P04234 22-105; P07766 23-126, limits assumed).
T2 construct: Analyte in Biacore; also called CD3D&E-His; CD3d&ε-His
Description: SPR Biacore, Ab captured on Protein A.

The target of experiment [3] is T3, cynomolgus CD3 on cynomolgus PBMC (cynomolgus, UniProt Q95LI5 22-198; Q95LI8 22-171; Q95LI7 23-181).
T3 construct: whole, on cells; Native CD3 complex on cynomolgus T cells; also called cyno PBMC; cynoPBMCs
As to the kind of experiment: FACS on cynomolgus PBMC, PE anti-human IgG Fc secondary, geometric mean fluorescence.

Experiment [4] addresses T4, cynomolgus CD3 protein (cynomolgus).
T4 construct: ELISA coating protein
As to the kind of experiment: ELISA, plate-coated CD3. (In general: ELISA stands for enzyme-linked immunosorbent assay.)

Experiment [5] deals with T5, human CD3 protein (human, UniProt P07766 23-126; P04234 22-105).
T5 construct: ELISA coating protein; also called Human CD3D & CD3E Heterodimer Protein
Description: ELISA, plate-coated CD3.

In experiment [6] the target is T1, human CD3 on cells (human PBMC; Jurkat …). Description: FACS on human PBMC, PE anti-human IgG Fc secondary, geometric mean fluorescence.

T2 sequence (P04234 22-105 limits assumed, chain 1 of 2): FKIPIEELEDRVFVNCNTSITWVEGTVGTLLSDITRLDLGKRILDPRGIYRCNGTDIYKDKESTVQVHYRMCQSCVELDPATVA
T2 sequence (P07766 23-126 limits assumed, chain 2 of 2): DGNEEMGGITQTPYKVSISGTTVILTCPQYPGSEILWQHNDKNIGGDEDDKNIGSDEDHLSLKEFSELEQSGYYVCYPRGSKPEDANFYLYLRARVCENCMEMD
T1 sequence (P07766 23-207, chain 1 of 3): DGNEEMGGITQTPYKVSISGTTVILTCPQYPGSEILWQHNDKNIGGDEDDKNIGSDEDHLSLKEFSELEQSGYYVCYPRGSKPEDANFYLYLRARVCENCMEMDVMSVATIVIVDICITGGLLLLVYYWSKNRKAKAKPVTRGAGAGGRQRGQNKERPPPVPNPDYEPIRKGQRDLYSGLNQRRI
T1 sequence (P04234 22-171, chain 2 of 3): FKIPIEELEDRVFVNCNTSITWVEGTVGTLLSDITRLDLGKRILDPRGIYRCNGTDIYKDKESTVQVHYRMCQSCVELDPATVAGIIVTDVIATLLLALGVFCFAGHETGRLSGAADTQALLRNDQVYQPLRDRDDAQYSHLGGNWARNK
T1 sequence (P09693 23-182, chain 3 of 3): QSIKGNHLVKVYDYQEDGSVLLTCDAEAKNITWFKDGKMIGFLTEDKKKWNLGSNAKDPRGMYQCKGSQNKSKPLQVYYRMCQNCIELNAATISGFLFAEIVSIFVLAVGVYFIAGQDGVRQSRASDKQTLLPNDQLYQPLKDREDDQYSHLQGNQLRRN
T5 sequence (P07766 23-126 limits assumed, chain 1 of 2): as the sequence (P07766 23-126 limits assumed, chain 2 of 2) above
T5 sequence (P04234 22-105 limits assumed, chain 2 of 2): as the sequence (P04234 22-105 limits assumed, chain 1 of 2) above
T3 sequence (Q95LI5 22-198, chain 1 of 3): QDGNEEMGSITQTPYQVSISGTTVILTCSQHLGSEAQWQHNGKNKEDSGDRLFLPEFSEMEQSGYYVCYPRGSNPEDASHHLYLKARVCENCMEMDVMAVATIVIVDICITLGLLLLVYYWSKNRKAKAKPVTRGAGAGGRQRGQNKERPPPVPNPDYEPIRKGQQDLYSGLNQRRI
T3 sequence (Q95LI8 22-171, chain 2 of 3): as the sequence (P04234 22-171, chain 2 of 3) above, with I5V, N15K, I20V, S32T, D33N, I34N, T64A, S74N, V83L, H141R counted along it
T3 sequence (Q95LI7 23-181, chain 3 of 3): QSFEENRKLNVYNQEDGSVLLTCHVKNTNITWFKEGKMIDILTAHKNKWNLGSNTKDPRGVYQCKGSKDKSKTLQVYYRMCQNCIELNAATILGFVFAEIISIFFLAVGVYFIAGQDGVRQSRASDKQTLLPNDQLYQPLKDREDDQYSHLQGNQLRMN
T4 sequence (Q95LI5 22-117, chain 1 of 2): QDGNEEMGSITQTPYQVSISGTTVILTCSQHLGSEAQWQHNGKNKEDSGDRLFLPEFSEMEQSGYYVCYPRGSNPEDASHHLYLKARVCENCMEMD
T4 sequence (Q95LI8 22-105, chain 2 of 2, further chain): as the sequence (P04234 22-105 limits assumed, chain 1 of 2) above, with I5V, N15K, I20V, S32T, D33N, I34N, T64A, S74N, V83L counted along it

B1: SP34 monoclonal antibody (antibody, human IgG1, lambda, N297A, V domains shown)
VH: EVQLVESGGGLVQPKGSLKLSCAASGFTFNTYAMNWVRQAPGKGLEWVARIRSKYNNYATYYADSVKDRFTISRDDSQSILYLQMNNLKTEDTAMYYCVRHGNFGNSYVSWFAYWGQGTLVTVSA
VL: QAVVTQESALTTSPGETVTLTCRSSTGAVTTSNYANWVQEKPDHLFTGLIGGTNKRAPGVPARFSGSLIGDKAALTITGAQTEDEAIYFCALWYSNLWVFGGGTKLTVLG
notes: also called SP34 (Biointron, B6762)
For the molecule B1, in experiment [1], the “% of SP34” value came out at 100%. For the same molecule, in experiment [2], the Kd (as a rule, the concentration at which binding is half-saturated) amounted to 6.89 nM; the koff – broadly, the first-order rate constant of dissociation – amounted to 0.00292 s⁻¹; the kon (commonly the second-order rate constant of association) was 424000 M⁻¹ s⁻¹. Also, in experiment [3], the binding result is “binds”. Further, in experiment [4], a half-maximal response (EC50) required 6.18 ng/mL. Further, the EC50 (usually the concentration at which the effect is half-maximal) in experiment [5] was found to be 6.48 ng/mL. Besides, the EC50 (read off the curve) (in general, the concentration giving half of the maximal effect) in experiment [6] is approximately 1 nM.
